# Laboratory results published in patent US9828641B2, “Systemic genotoxicity as blood marker for allergic inflammation” (The Regents of the University of California, priority 2013, dated 2017).
# Entries after “also recorded” stand apart in the source; their conditions may differ.
# What was measured:
# peripheral leukocytes [1] = test: Alkaline comet assay with and without hOgg1 incubation; format: in vivo; settings: wildtype mice, single tail vein injection; for Time of maximum DNA damage to peripheral leukocytes: TNF-α 500 ng or IL-β 100 ng alone; for Time to repair of DNA damage in peripheral leukocytes: TNF-α 500 ng/mouse or IL-β 100 ng/mouse alone
# Description: Frozen blood was further diluted 1:15 in PBS before further preparation.
# (§1) The enzyme hOgg1-modified comet assay was used for determination of oxidative DNA damage (25). Following lysis, samples were washed in an enzyme wash buffer (40 mM HEPES, 0.1M KCl, 0.5 mM EDTA, 0.2 mg/ml BSA, pH 8.0) then incubated at 37° C. for 10 min in either control (buffer with no hOGG1) or enzyme treated (buffer with hOGG1) solutions according to the manufacturer's recommendations. (New England Biolabs, Ipswich, Mass.). Both control and enzyme treated gels were then placed in electrophoresis buffer and processed identically to the alkaline comet assay.
# The enzyme hOgg1-modified comet assay was used and carried out identically as previously described (1).
# as §1, with “For determination of oxidative DNA damage the” for “The”, “(5). After lysis in the alkaline comet assay,” for “for determination of oxidative DNA damage (25). Following lysis,”, “recommendations” for “recommendations.”
# Control animals received vehicle only.
# [2] = tested on: normochromatic erythrocytes; test: In vivo micronucleus assay; settings: wildtype mice, 48 hours post-injection
# Description: Micronuclei (MN) formation was determined in peripheral blood erythrocytes to assess chromosomal instability. Similar to a previously proposed method (28), 3 μl of whole blood was spread on a microscope slide and stained in Modified Wright-Giemsa solution (Sigma-Aldrich, St. Louis, Mo.). MN were counted and scored with an Olympus Ax70 (Tokyo, Japan) at 100× following previously proposed criteria (29). At least 4000 mature erythrocytes were counted per mouse, and the frequency of MN formation was calculated as number of micronucleated erythrocytes per 1000 normochromatic erythrocytes.
# Micronucleus formation was determined in normochromatic erythrocytes as micronucleated normochromatic erythrocytes per 1000 normochromatic erythrocytes as described previously (1, 8).
# Mouse TNF-α (Sigma) and/or mouse IL-1β (Sigma) were injected via the tail vein at 500 ng/mouse and 100 ng/mouse, respectively, dissolved in saline. Control animals received vehicle only. Peripheral blood was collected at 1 hr, 2 hrs, 4 hrs, and 24 hrs after injection for genotoxicity assays.
# peripheral leukocytes [3] = test: γ-H2AX immunofluorescence (DNA double strand breaks); format: in vivo, mice; settings: 3% DSS
# Description: Peripheral blood was incubated in Buffer EL (Qiagen, Valencia, Calif.) on ice to remove erythrocytes. Samples were then processed on coverslips essentially as described elsewhere (26). […] Coverslips were mounted with [sequence] with 4,6-diamidino-2-phenylindole (Vector Laboratories, Burlingame, Calif.). Images were captured with CytoVision® (Applied Imaging Corporation, San Jose, Calif.) connected to a Zeiss Axioplan 2 microscope. At least 125 cells were counted and cells with more than four distinct foci in the nucleus were considered positive for γ-H2AX (26). Apoptotic cells, which are distinguishable due to presence of 10-fold the number of nuclear foci in damaged cells (27), were not included in analyses.
# Peripheral blood and splenocytes were incubated in Buffer EL (Qiagen, Valencia, Calif.) on ice to remove erythrocytes. […] Samples were then processed on coverslips as described elsewhere (6). Briefly, after permeabilization and blocking, cells were incubated with mouse anti-phospho-Histone H2A.X S139(P) (Upstate, Temecula, Calif.) at 1:400 followed by FITC-conjugated anti-mouse IgG (Jackson ImmunoResearch, West Grove, Pa.) at 1:200. Coverslips were mounted with [sequence] with 4,6-diamidino-2-phenylindole (Vector Laboratories, Burlingame, Calif.). […] At least 125 cells were counted and cells with more than four distinct foci in the nucleus were considered positive (6). […]
# [4] = tested on: TNF-α, MCP-1, IFN-γ, TGF-β transcripts; test: Quantitative real-time PCR of cytokines in peripheral blood; format: in vivo, mice; settings: 3% DSS, particularly after the first cycle
# Description: Total RNA was isolated using QiaAmp RNA Blood Mini Kit (Qiagen) according to manufacturer's instructions. 25 ng/μl of total RNA was used for reverse transcription using OligodT (Invitrogen) and Superscript III Reverse Transcriptase (Invitrogen). 10 ng/μl of cDNA was used for quantitative real time PCR using Taqman Gene Expression Assays (Applied Biosystems, Foster City, Calif. p/n 4331182) for Tbp (TATA binding protein), TNF-α (tumor necrosis factor α), MCP-1 (monocyte chemoattractant protein 1, also known as CC chemokine ligand 2, CCL2), IFN-γ (interferon γ), TGF-β ([…]) and Taqman Gene Expression Master Mix according to manufacturer's instructions on the ABI Prism 7500 sequence detection system (Applied Biosystems). Tbp was chosen as the endogenous control due to its low variability and low to medium relative abundance in terms of expression in blood (30). Each measurement was performed in triplicate and results were analyzed using SDS 2.2.1 software (Applied Biosystems). Gene expression was determined using the relative standard curve method normalized to Tbp expression.
# [5] = literature statement; cited from earlier work
"Percentage of cells positive for γ-H2AX nuclear foci vs non-treated (peripheral leukocytes [3]; after first 7 day acute treatment, p<0.01)",Molecule,Onset of DNA damage to peripheral leukocytes (comet and γ-H2AX) (peripheral leukocytes [1]; TNF-α 500 ng/mouse),Time until which DNA damage remained elevated (peripheral leukocytes [1]; TNF-α 500 ng/mouse),Time of maximum DNA damage to peripheral leukocytes (peripheral leukocytes [1]),Time to repair of DNA damage in peripheral leukocytes (peripheral leukocytes [1]),Micronuclei formation in normochromatic erythrocytes vs before injection [2],"Percent γ-H2AX positive cells vs non-treated, chronic phase (peripheral leukocytes [3]; until end of treatment, p<0.05)",Cytokine mRNA expression in peripheral blood [4],Direct mutagenicity/genotoxicity [5]
–,TNF-α,1 hour post-injection,approximately 4 hours post-injection,1 hours post-injection,≤ 24 hours post-injection,minimally yet significantly elevated,–,–,–
increased dramatically,dextran sulfate sodium [DSS],–,–,–,–,–,remained elevated over non-treated animals,"up-regulation of TNF-α, MCP-1 (CCL2), and IFN-γ",not a mutagen nor genotoxic; also recorded: not directly genotoxic
–,"IL-β: Recombinant mouse IL-1β (Sigma), injected via the tail vein at 100 ng/mouse (protein, UniProt P10749 118-269, looked up) Interleukin-1 beta: VPIRQLHYRLRDEQQKSLVLSDPYELKALHLNGQNINQQVIFSMSFVQGEPSNDKIPVALGLKGKNLYLSCVMKDGTPTLQLESVDPKQYPKKKMEKRFVFNKIEVKSKVEFESAEFPNWYISTSQAEHKPVFLGNNSGQDIIDFTMESVSS",–,–,4 hours post-injection,≤ 24 hours post-injection,–,–,–,–
